Measured values published in the supplement of paper PMC10567573.

B1: CHCHD6 (parent)
chain: MYKLSSEQFHEAASKMESTIKPRR

Variants of: B1
Assay: protein stability index of a GFP-peptide fusion (GPS, HEK-293T) (PSI 1-6); higher = more stable
Settings: c terminus: a fixed tail appended
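Further: lentivirally expressed fusions sorted by FACS into six bins by GFP to DsRed ratio, PSI derived from sequencing read proportions per bin multiplied by bin number.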

Protein stability index: each site, then its substitutions
E17: D 4; Y 3; P 3.15; N 3.57; M 3.55; V 3.27; W 2.4; A 3.24; H 2.92; F 2.69; K 2.73; T 3.19; R 3.29; C 3.46; L 3.08; Q 3.71; S 3.71; I 3.85; G 4.03
P22: Q 3.86; H 3.91; D 4.26; R 3.83; C 4.05; A 3.46; E 3.93; M 3.86; I 3.53; V 3.6; W 2.58; G 3.56; N 3.46; K 3.8; S 4.03; Y 3; F 3; T 4.09; L 3.92
T19: M 3.72; H 4.29; Q 4.09; E 3.89; L 3.67; Y 3.4; P 3.68; A 3.78; C 3.67; R 3.88; G 3.76; W 2.15; S 3.82; V 3.82; D 3.49; F 3.63; N 4; K 3.77; I 3.12
R23: Y 3.44; C 3.48; F 3; T 3.31; N 3.4; L 2.91; E 4.14; Q 3.12; G 3.59; P 3.78; I 3.05; H 3.96; W 2.54; A 3.99; M 3.65; K 4.11; S 3.7; V 3.16; D 4.44
M16: R 3.94; P 4.31; D 4.09; A 4.17; L 3.41; C 3.58; K 4.31; Y 3.45; F 3.53; H 4.44; V 4.46; N 4.17; S 4.16; Q 4.47; I 3.53; W 3.41; T 4.34; G 3.77; E 4.55
K21: L 3.04; H 3.86; D 3.69; C 4.22; E 4.33; V 3.61; S 3.68; I 3.44; A 3.49; G 3.5; N 3.89; T 3.31; R 3.9; F 3; M 3.09; Y 2.33; Q 3.22; W 2.48; P 4.13
I20: P 4.56; N 3.56; M 4.21; H 3.95; F 3.51; S 4.21; A 4.38; T 4.25; V 4.08; D 4.22; W 3.07; C 4.01; L 3.23; Y 3.44; R 3.97; E 4.74; Q 3.82; K 4.05; G 4.3
K15: F 3.91; T 4.37; R 3.72; Y 3.5; P 3.93; G 3.82; W 3.73; C 3.54; D 4.18; I 3.67; N 4.42; E 4.42; S 4.04; M 3.84; V 4.2; L 3.73; H 3.75; Q 4.74
R24: T 4.12; F 3.06; S 4.11; M 3.86; N 4.18; L 3.31; K 3.86; D 4.2; V 3.06; W 2.56; G 3.39; Y 3.15; E 3.74; I 2.86; P 3.7; H 3.85
